From article PMC10984984, “Loss-of-function mutation in PRMT9 causes abnormal synapse development by dysregulation of RNA alternative splicing” come the findings set out here.

This series has as its target T1, SF3B2 peptide R508me0 (unmodified) (UniProt Q13435).
T1 chain: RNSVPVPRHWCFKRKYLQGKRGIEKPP
Briefly: EMSA; R508me0; RNA 1 uM, peptide 1.4-140 uM; 20 mM Tris-HCl pH 8.0, 150 mM NaCl, 1.5 mM MgCl2, 0.5 mM EDTA, 100 U/mL RNasin, room temperature, 20 min; 6% native gel in 0.5x TBE. The note with it: label: 5' 6-FAM. For orientation: In EMSA bound probe runs differently from free probe, usually more slowly.

B1: Stag2 upstream probe A (nonconsensus anchoring site) (ssRNA)
RNA: CAUAGAAAAAAGUUAAGUUAA
Turning to B1, the binding result is recorded as “binds”.

B2: Stag2 downstream probe B (consensus anchoring site) (ssRNA)
RNA: UAAUAGUCAUGCCUUGGUUCA
Take B2: the binding result is recorded as “binds”.
